From patent publication US10363323B2, “Hydrophobic modified peptides for liver specific diagnosis” (RUPRECHT-KARLS-UNIVERSITAT HEIDELBERG, priority 2011, dated 2019)

Tests used:
liver of a WAG/Rji rat = details: 400 nmol/kg i.v., five minutes post injection, WAG/Rji rat bearing CC531 colon carcinoma
Protocol: The rats were orthopically injected with 1×10^6 syngenic colon carcinoma cells (CC531 cells) 10 days prior to the measurements. At the day of measurement the rats received the peptide in a concentration of 400 nmol/kg body weight. During the experiments the rats were anaesthetised by isoflurane and kept at 37° C.

Stability in the serum = type: in vitro ADME; details: 37° C., non-inactivated human serum from healthy donors, over the indicated period
Protocol: The detection of degradation products was conducted by purification of the peptides by using HPLC affinity chromatography and subsequent radioactivity determination was performed on a gamma counter at the indicated time points. The correct mass of the radioactive peak fractions eluted from the column was confirmed by mass spectrometry (data not shown).

For `CCCCCCCCCCCCCCCCCC(=O)N[C@@H](CCCCNC(=O)CN1CCN(CC(=O)O)CCN(CC(=O)O)CCN(CC(=O)O)CC1)C(=O)N[C@@H](CCCCNC(=O)CN1CCN(CC(=O)O)CCN(CC(=O)O)CCN(CC(=O)O)CC1)C(=O)N[C@@H](CCCCNC(=O)CN1CCN(CC(=O)O)CCN(CC(=O)O)CCN(CC(=O)O)CC1)C(=O)N[C@@H](CC(N)=O)C(=O)N[C@@H](CC(C)C)C(=O)N[C@@H](CO)C(=O)N[C@H](C(=O)N[C@@H](CO)C(=O)N[C@@H](CC(N)=O)C(=O)N1CCC[C@H]1C(=O)N[C@@H](CC(C)C)C(=O)NCC(=O)N[C@@H](Cc1ccccc1)C(=O)N[C@@H](Cc1ccccc1)C(=O)N1CCC[C@H]1C(=O)N[C@@H](CC(=O)O)C(=O)N[C@@H](Cc1c[nH]cn1)C(=O)N[C@@H](CCC(N)=O)C(=O)N[C@@H](CC(C)C)C(=O)N[C@@H](CC(=O)O)C(=O)N1CCC[C@H]1C(N)=O)[C@@H](C)O`, the “enrichment in the liver (PET image)” value (liver of a WAG/Rji rat) was “Specific enrichment” and the “degradation in non-inactivated human serum (HPLC, gamma counter)” value (Stability in the serum) was “Only radioactive decay but no cleavage was observed”.
